This is an account of results in patent publication US20080145339, “Adeno-associated virus AAV Rep78 major regulatory protein mutants thereof and uses thereof” (University of Arkansas, published 2008).

The data set has as its target T1, AAV Rep78 wild-type (adeno-associated virus 2, UniProt Q89268 SEQ:1-621).
T1 sequence: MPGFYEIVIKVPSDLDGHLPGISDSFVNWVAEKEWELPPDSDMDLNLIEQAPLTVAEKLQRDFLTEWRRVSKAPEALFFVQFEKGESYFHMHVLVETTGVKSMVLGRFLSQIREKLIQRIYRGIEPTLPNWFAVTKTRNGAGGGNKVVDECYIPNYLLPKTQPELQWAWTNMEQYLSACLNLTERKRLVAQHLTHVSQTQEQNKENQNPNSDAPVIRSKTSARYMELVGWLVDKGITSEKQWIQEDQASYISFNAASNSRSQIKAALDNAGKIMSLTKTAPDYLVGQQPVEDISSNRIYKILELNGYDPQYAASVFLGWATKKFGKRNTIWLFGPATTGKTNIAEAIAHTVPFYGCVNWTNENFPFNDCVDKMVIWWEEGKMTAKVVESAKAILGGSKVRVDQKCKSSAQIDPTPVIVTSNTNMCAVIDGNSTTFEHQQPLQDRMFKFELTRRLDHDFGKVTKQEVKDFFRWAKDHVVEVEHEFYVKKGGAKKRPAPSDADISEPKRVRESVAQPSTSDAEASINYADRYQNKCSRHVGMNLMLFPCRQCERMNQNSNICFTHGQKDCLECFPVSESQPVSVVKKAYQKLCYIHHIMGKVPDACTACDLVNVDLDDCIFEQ
In words: EMSA; minus strand strongly recognized. The settings on record: tags: MBP fusion (pMALc2, amylose purified); label: 32P.

B1: HPV-16 p97 minus strand nt 14-106 (ssDNA)
DNA: CATTGCAGTTCTCTTTTGGTGCATAAAATGTCTGCTTTTATACTAACCGGTTTCGGTTCAACCGATTTCGGTTACGCCCTTAGTTTTATACAT
modifications: [NONE]
For the molecule B1, the binding result is on record as “binds”.
